Reference: the Human Domainome abundance scans (Beltran et al. 2025)
± gives the uncertainty stated by the source.

B1: Protein C-ets-1, residues 55 to 135; numbered along this chain, P14921 (parent)
chain: GFTKEQQRLGIPKDPRQWTETHVRDWVMWAVNEFSLKGVDFQKFCMNGAALCALGKDCFLELAPDFVGDILWEHLEILQKE

Variants of: B1
Assay: abundance fitness (aPCA) (normalised: wild type 0, dead -1); higher = more abundant; growth selection in yeast, the domain comes from the species named
Conditions: Homo sapiens

| Variant | abundance fitness |
| --- | --- |
| E76W | -0.109 ± 0.051 |
| E76F | -0.273 ± 0.078 |
| E76T | -0.14 ± 0.065 |
| E76G | -0.036 ± 0.033 |
| E76K | -0.053 ± 0.09 |
| E76M | 0.04 ± 0.063 |
| E76V | -0.108 ± 0.045 |
| E76C | -0.092 ± 0.051 |
| K56V | -0.558 ± 0.046 |
| E73Y | -0.319 ± 0.11 |
| E73T | -0.19 ± 0.07 |
| E73R | -0.088 ± 0.031 |
| A63C | 0.02 ± 0.055 |
| A63H | -0.096 ± 0.051 |
| A63N | -0.399 ± 0.17 |
| A63Y | -0.299 ± 0.11 |
| A63G | -0.262 ± 0.034 |
| A63V | 0.007 ± 0.033 |
| K80N | 0.029 ± 0.19 |
| W72S | -0.735 ± 0.062 |
| W72H | -0.361 ± 0.084 |

| Variant | abundance fitness |
| --- | --- |
| W72A | -0.52 ± 0.053 |
| W72L | -0.316 ± 0.033 |
| W72C | -0.62 ± 0.067 |
| W72V | -0.918 ± 0.086 |
| A50K | 0.042 ± 0.075 |
| A50C | -0.116 ± 0.073 |
| A50Y | -0.351 ± 0.1 |
| N47G | -0.185 ± 0.038 |
| N47Q | -0.277 ± 0.049 |
| N47H | -0.152 ± 0.081 |
| N47E | -0.165 ± 0.085 |
| N47L | -0.879 ± 0.07 |
| A30K | -0.366 ± 0.07 |
| A30S | -0.062 ± 0.029 |
| A30M | -0.008 ± 0.055 |
| A30F | -0.187 ± 0.086 |
| A30I | -0.196 ± 0.079 |
| P64Y | -0.728 ± 0.2 |
| P64I | -0.891 ± 0.22 |
| P64M | -1.06 ± 0.2 |
| P64T | -0.194 ± 0.059 |

| Variant | abundance fitness |
| --- | --- |
| P64N | -0.296 ± 0.14 |
| P64E | -0.239 ± 0.057 |
| L54V | -0.254 ± 0.032 |
| L54G | -0.229 ± 0.027 |
| L54A | -0.338 ± 0.032 |
| I11K | -0.695 ± 0.087 |
| V39D | -0.699 ± 0.097 |
| V39I | -0.061 ± 0.06 |
| L75D | -0.91 ± 0.2 |
| L75Y | -0.62 ± 0.14 |
| H74W | -0.611 ± 0.071 |
| H74G | -0.346 ± 0.042 |
| H74Y | -0.454 ± 0.12 |
| T3N | -0.121 ± 0.081 |
| T3I | -0.005 ± 0.049 |
| T3C | -0.075 ± 0.068 |
| T3E | 0.011 ± 0.081 |
| T3Q | -0.032 ± 0.067 |
| S35L | -0.364 ± 0.034 |
| S35P | -0.625 ± 0.048 |
| S35N | -0.178 ± 0.2 |

| Variant | abundance fitness |
| --- | --- |
| F66D | 0.051 ± 0.058 |
| F66H | 0.095 ± 0.048 |
| F66L | -0.022 ± 0.043 |
| L9E | -0.261 ± 0.055 |
| L9Y | -0.158 ± 0.12 |
| L9R | -0.017 ± 0.039 |
| C45W | -0.041 ± 0.043 |
| C45Q | -0.002 ± 0.059 |
| C45H | 0.052 ± 0.08 |
| C45V | -0.05 ± 0.036 |
| C45P | -0.344 ± 0.038 |
| D14T | -0.62 ± 0.05 |
| D14R | -0.684 ± 0.036 |
| D14E | -0.172 ± 0.04 |
| D14N | -0.122 ± 0.061 |
| D14L | -0.552 ± 0.033 |
| F2R | -0.298 ± 0.052 |
| F2C | -0.408 ± 0.08 |
| F2M | -0.238 ± 0.097 |
| C52G | -0.562 ± 0.024 |
| C52Y | -0.472 ± 0.065 |
